The text below walks through data of publication PMC12903456, “DoMYB75 coordinately regulates polysaccharide and anthocyanin biosynthesis in Dendrobium officinale”.

The data set has as its target MBP-DoMYB75 (Dendrobium officinale, UniProt A0A2I0X1N0 1-290). As to the kind of experiment: EMSA; competed by unlabeled probe; LightShift Chemiluminescent EMSA Kit (Thermo Fisher) per manufacturer; buffer, salt, pH and temperature not stated. To be noted: protein: recombinant; tags: MBP; label: biotin; blunt. On the technique in general: Mobility shift assays separate free from complexed probe on a gel.

Chain of MBP-DoMYB75 (A0A2I0X1N0 entry or part of it): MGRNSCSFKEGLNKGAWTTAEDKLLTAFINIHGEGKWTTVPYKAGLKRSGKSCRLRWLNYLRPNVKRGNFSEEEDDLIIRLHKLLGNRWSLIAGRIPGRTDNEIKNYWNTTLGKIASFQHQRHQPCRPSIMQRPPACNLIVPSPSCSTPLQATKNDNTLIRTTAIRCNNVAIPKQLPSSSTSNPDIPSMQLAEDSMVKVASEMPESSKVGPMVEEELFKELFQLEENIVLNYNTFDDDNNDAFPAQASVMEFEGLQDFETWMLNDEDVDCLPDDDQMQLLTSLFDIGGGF

B1: ProCSLA12 probe (dsDNA)
DNA 1: CCCTAAAGGTTGGAGTTGGTCACTCAACCTAACCTTAAATAATGATTCATGTTGTATTC
DNA 2: GAATACAACATGAATCATTATTTAAGGTTAGGTTGAGTGACCAACTCCAACCTTTAGGG
As for B1, the binding result was “binds”.

B2: ProCSLA3 probe (dsDNA)
DNA 1: TCACATTTATCACGTTTGAGTTCGATACCAACTTTTTTTTTTTTTTTTTGAGC
DNA 2: GCTCAAAAAAAAAAAAAAAAAGTTGGTATCGAACTCAAACGTGATAAATGTGA
Take B2: the binding result is “binds”.

B3: ProCSLA9 probe (dsDNA)
DNA 1: TAAGAAACTTTGATAACTATTAGATGACCAAATTAATTCAATCATACCGTAAATAATTC
DNA 2: GAATTATTTACGGTATGATTGAATTAATTTGGTCATCTAATAGTTATCAAAGTTTCTTA
As for B3, the binding result is on record as “binds”.
